# Assay results taken from paper PMC11410943.
# Test system: Cn1c(=O)ccc2ccc(F)c(CCNC[C@H]3CN(c4cnc5c(n4)NC(=O)CO5)C(=O)O3)c21
# Assay: MATE2-K transport in HEK293 cells
# Assay type: in vitro ADME, human
# Settings: other: HEK293 cells; 37.0 °C
substance,measurement,value
MATE2-K (Homo sapiens),Km,469 µM
same,Vmax,111 pmol/mg/min
